Measurements as given in the nanobody polyreactivity screen of Harvey et al. (2022).

Test: yeast display, Sf9 membrane polyspecificity reagent, FACS + sequencing; frameworks hold sequencing errors
Method in brief: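 Galactose-induced (36–48 hours) yeast carrying a synthetic nanobody display library were exposed to 10% biotinylated, detergent-solubilized Sf9 membrane reagent at 4 °C for 1 hour. FACS followed streptavidin microbead enrichment, using low and high (top ~1%) gates for expression (anti-HA) and reagent binding (streptavidin). Colony PCR, MiSeq 2 × 250 sequencing and CDR-length filtering followed. Labels for polyreactivity reflect the gate of origin.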

Row | Sequence | polyreactivity (PSR sort gate)
1 | QVQLVESGGGLVQAGGSLRLSCAASGGTIAFNGMGWYRQAPAKERELVAAITWRSGSTYYADSVKGRFTISRDNAKNTVYLQMNSLKPEDTAVYYCAARLYRYTPFDYWGQGTQVTVSS | high polyreactivity
2 | QVQLVESGGGLVQAGGSLRLSCAASGGTIAPYAMVWYRQAPGKERELVATISYSGTSTNYADSVKGRFTITRDNAKNTVYLQMNSLKPEDTAVYYCYAVLYARQRDRWARYDYWGQGTQVTVSS | high polyreactivity
3 | QVQLVESGGGLVQAGGSLRLSCAASGGTIDYAMGWYSQAPGKERELVAAISKHGGRTYYADSVKGRFTISRDNAKYTVYLQMNSLKPEDTAVYYCAADAFRGFYWGQGTQVTVSS | high polyreactivity
4 | QVQLVESGGGLVQAGGSLRLSCAASGGTITPYAMGWYRQAPGKERELVAAISRSGARTYYADSVKGRFTISRDNAKNTVYLQMNSLKPEDTAVYYCAKTFSGYRFDYWGQGTQVTVSS | high polyreactivity
5 | QVQLVESGGGLVQAGGSLRLSCAASGGTIVWNAMGWYRQAPGKEREFVAAITSSGGSTYYADSVKGRFTITRDYAKNTVYLQINSLKPEDTAVDYCNVDTHSSYEFNSWGQGTQVTVSS | low polyreactivity
6 | QVQLVESGGGLVQAGGSLRLSCAASGGTLKYYAMGWYRQAPGKEREVVATISSRGGSTYYADSVKGRFTISRDNAKNTVYLQMNSLKPEDTAVYYCARRYWVQSRYPEMDYWGQGTQVTVSS | high polyreactivity
7 | QVQLVESGGGLVQAGGSLRLSCAASGGTLVPNAMGWYRPAPGKERELVAGISGSGGSTYYADSVKGRFTISRDNAKNTVYLQMNSLKPEDTAVYYCNADRYVPYYEPEMDYWGQGTQVTVSS | low polyreactivity
8 | QVQLVESGGGLVQAGGSLRLSCAASGGTVTYNAMGWYRQAPGKERELVAAITNGGGSTYYADSVKGRFTISRDYAKNTVYLQMNSLKPEDTAVYYCAARWWYYYTEYDYWGQGTQVTVSS | low polyreactivity
9 | QVQLVESGGGLVQAGGSLRLSCAASGHIFFYYTMGWYRQAPGKERELVAGITIGGSTNYADSVKGRFTISRDNAKNTVYLQMNSLKPEDSAVYYCNVVKYVYIYSYWEYYYWGQGTQVTVSS | low polyreactivity
10 | QVQLVESGGGLVQAGGSLRLSCAASGHIFSYYAMGWYRQAPGKERELVAAISSSGSSTYYADSVKGRFTISRDNAKNTVYLQMNSLKPEDTAVYYCNAPYIAWYDGDYWGQGTQVTVSS | low polyreactivity
11 | QVQLVESGGGLVQAGGSLRLSCAASGHIFTRNSMGWYRQAPGKERELVAAISRTGGSTYYADSVKGRFTISRDNAKNTVYLQMNSLKPEDTAVYDCAKRRQASEDYWGQGTQVTVSS | high polyreactivity
12 | QVQLVESGGGLVQAGGSLRLSCAASGHILFKYTMGWYRQAPGKERELVAAISRSGGTTYYADSVKGRFTISRDNAKNTVYLQMNSLKPEDTAVYYCAARVTPGRNGGGYWGQGTQVTVSS | high polyreactivity
13 | QVQLVESGGGLVQAGGSLRLSCAASGHIYFYYTMGWYRQAPGKERDLVAGITIGGSTNYADSVKGRFTISRDNAKNTVYLQMNSLKPEDTAVYYCNVVKYVYIYSYWEYYYWGQGTQVTVSS | low polyreactivity
14 | QVQLVESGGGLVQAGGSLRLSCAASGHIYVRYAMGWYRQAPGKERELVAAITSGGSTYYADSVKGRFTISRDNAKNTVYLQMNSLKPEDTAVYYCAARKQQYRFTHDYWGQGTQVTVSS | high polyreactivity
15 | QVQLVESGGGLVQAGGSLRLSCAASGIAYTYNAMGWYRQAPGKERELVASISRTGGSTRYADSVKGRFTISRDNAKNTFYLQMNSLKPEDTAVYYCAALSWRYVKYRFDYWGQGTQVTVSS | high polyreactivity
16 | QVQLVESGGGLVQAGGSLRLSCAASGIFIDSNAMGWNRQAPGKERELVAAITSGGSTKYADSVKGRFTISRDTAKNTVYLQMNSLKPVDTAVYYCNAGPAVRSAYSTPYYDYWGLGTQVTVSS | low polyreactivity
17 | QVQLVESGGGLVQAGGSLRLSCAASGIFLVYAMGWYRQAPGKERELVAAIRSDASTNYADSVKWRFTISRDNAKKTVYLQMNILKPEDSAVYYCNTAQLVSDEFDYWGQGTQVTVSS | low polyreactivity
18 | QVQLVESGGGLVQAGGSLRLSCAASGIFRSNTMGWYRQAPGKERELVATISRRSGSTYYADSVKGRFTISRDNAKNTVYLQMNSLKPEDTAVYYCAAAAPRRKYDYWGQGTQVTVSS | high polyreactivity
19 | QVQLVESGGGLVQAGGSLRLSCAASGIFSHYALGWYRQAPGKERELVAAISSSGGRTYYADSVKGRFTISRDNAKNTVYLQMNSLKPEDTAVYYCAAPWRSSPYHFYYWGQGTQVTVSS | high polyreactivity
20 | QVQLVESGGGLVQAGGSLRLSCAASGIFSRYAMGWYIQAPGKERELVAAISSGDSTNYADSVKGRFTISRDNAKNTVYLQMNSLKPEDTAVYYCATERSHLATGQGYYYVQTFYYWGQGTQVTVSS | low polyreactivity
21 | QVQLVESGGGLVQAGGSLRLSCAASGIFSYYAMGWYRQAPGKERELVAAISSSGGSTYYADSVKGRFTISRDNAKNTVYLQMNSLKPEDTAVYYCNVRNYYNDYYYWGQGTQVTVSS | high polyreactivity
22 | QVQLVESGGGLVQAGGSLRLSCAASGIFTRYVMGWYRQAPGKERELVAAITANGGRTYYADSVKGRFTISRDNAKNTVYLQMNSLKPEDTAVYYCNADWRWKWSSRGGYWGQGTQVTVSS | high polyreactivity

Row | Sequence | polyreactivity (PSR sort gate)
23 | QVQLVESGGGLVQAGGSLRLSCAASGIFVGNAMGWYRQAPGKERELVAAITGDGDSTYYADSVKGRFTISRDNAKNTVYLQMNSLKPEDNAVYYCNTVFDTIVDKYYYWGQGTQVTVSS | low polyreactivity
24 | QVQLVESGGGLVQAGGSLRLSCAASGIFVYYAMGWYRQAPGKERELVAAISSTGTSTYYADSVKGRFTISRDNAKNTVYLQMNSLKPEDTAVYYCAARGYAKRGYWGQGTQVTVSS | high polyreactivity
25 | QVQLVESGGGLVQAGGSLRLSCAASGIHFRSNAMGWYRQAPGKERELVAAISGRGGRTYYADSVKGRFTISRDNAKNTVYLQMNSLKPEDTAVYYCARESYLGATYPKAYGPYYYWGQGTQVTVSS | high polyreactivity
26 | QVQLVESGGGLVQAGGSLRLSCAASGIICWWNTMGWYRQAPGKERELVATITRGGSTYYADSVKGRFTISRDNAKNTVYLQMNSLKPEDTAVYYCNAVQYKYLAKSYDYWGQGTQVTVSS | low polyreactivity
27 | QVQLVESGGGLVQAGGSLRLSCAASGIIFADNDMGWYRQAPVKERELVATISSAGNTNYADSVKGRFTISRDNAKNTVYLQMNSLKPEDTAVYYCAVVYYIPLLPPWIYEYDYWGQGTQVTVSS | low polyreactivity
28 | QVQLVESGGGLVQAGGSLRLSCAASGIIFADYAMGWYIQAPGKERELVAAISTSGGSTYYADSVKGRFTISRDNAKNPVYLQMNSLKPEDTAVYYCNAVYYTSYSGYQFVYEYDYWGQGTQVTVSS | low polyreactivity
29 | QVQLVESGGGLVQAGGSLRLSCAASGIIFALNAMGWYRQAPGKERELVATIDSTSGSTYYADSVKGRFTISRDNAKNTVYLQMNSLKPEDTAVYYCAVVHAQSAPMDYWGQGTQVTVSS | low polyreactivity
30 | QVQLVESGGGLVQAGGSLRLSCAASGIIFAQYTMGWYRQAPGKERELVAAINRNGGSTYYADSVKGRFTISRDNAKNTVYLQMNSLKPEDNAVYYCIADALGFRFDYWGQGTQVTVSS | low polyreactivity
31 | QVQLVESGGGLVQAGGSLRLSCAASGIIFARNAMGWYRQAPGKERELVATISRNGGRTYYADSVKGRFTISRDNAKNTVYLQMNSLKPEDTAVYYCARPYYGSWHSYGVDYWGQGTQVTVSS | high polyreactivity
32 | QVQLVESGGGLVQAGGSLRLSCAASGIIFARYAMGWYRQAPGKERELVAAISNRGTSTYYADSVKGRFTISRDNAKNTVYLQMNSLKPEDTAVYYCKRVKDGYWGQGTQVTVSS | high polyreactivity
33 | QVQLVESGGGLVQAGGSLRLSCAASGIIFARYAMGWYRQAPGKERELVAAITRRAVSTYYADSVKGRFTISRDNAKNTVYLQMNSLKPEDTAVYYCAADRASYFTYAYGYWGQGTQVTVSS | high polyreactivity
34 | QVQLVESGGGLVQAGGSLRLSCAASGIIFAYNAMGWYRQAPGKERELVAAISVIGGTTYYADSVKGRFTISRDNAKNTVYLQMHSLKPEDTAVYYCAVDSVQYGGGYERLHELYYWGQGTQVTVSS | low polyreactivity
35 | QVQLVESGGGLVQAGGSLRLSCAASGIIFAYNAMGWYRQAPGNERELVAAITSGTSTHYADSVKGRFTISRDNAKNTVYLQMNSLKPEDTAVYYCAKVYSYFNPRTYKPSFAGSDYWGQGTQVTVSS | low polyreactivity
36 | QVQLVESGGGLVQAGGSLRLSCAASGIIFAYYAMGWYRQAPGKETELVAAINRSGGTTYYADSVKGRFTISRDNAKNTVYLQMNSLKPEDTAVYYCNALTTWRYRYDYWGQGTQVTVSS | high polyreactivity
37 | QVQLVESGGGLVQAGGSLRLSCAASGIIFAYYTMGWYRQAPGKLRELVAAISWNGGRTYYADSVKGRFTISRDNAKNTVYLQINSLKPEDTAVYYCAARDASSFLRSYYWGQGTQVTVSS | high polyreactivity
38 | QVQLVESGGGLVQAGGSLRLSCAASGIIFDEYAMGWYRQAPGKERELVATISSGGDTNYADSVKGRFTISRDNAKHTFYLQMNSLKPEDTALYYCAATVYDGYSPYDYDYWGQGTQVTVSS | low polyreactivity
39 | QVQLVESGGGLVQAGGSLRLSCAASGIIFDGYAMGWYRQAPGKEREFVAAITSGGGSTSYADSVKGRFTISRDNAKNTVYLQMNSLKPEDTAVYSCAARSNRFYVRQRYGYWGQGTQVTVSS | high polyreactivity
40 | QVQLVESGGGLVQAGGSLRLSCAASGIIFDGYVMGWYRQAPGNERELVAAISRSGGRTFYADSVKGRFTISRDNAKNTVYLQMNSLKPEATAVYYCAARRVRTRGYNYWGQGTQVTVSS | high polyreactivity
41 | QVQLVESGGGLVQAGGSLRLSCAASGIIFDLNAMGWYRQAPGKERELVAAISSGGGTYYADSVKGRFTISRDNAKNTVYLQMNSLKPEDTAVYYCNRVTRWTYNYWGQGTLVTVSS | high polyreactivity
42 | QVQLVESGGGLVQAGGSLRLSCAASGIIFDPYAMGWYRQAPGKERELVADIDNASSTYYADSVKGRFTISRDNAKNTVYLQMNSLKPEDTAVYYCTADLWYGGEYWGQGTQVTVSS | low polyreactivity
43 | QVQLVESGGGLVQAGGSLRLSCAASGIIFDSYAMGWYRQAPGKERELVAAISTSGGSTYYADSVKGRFTISRDNAKNTVYLQMNSLKPEDTEVYYCAARYAVSRYRFGFNYWGQGTQVTVSS | high polyreactivity
